Experimental data from publication PMC12572175.

Assays:
[1] = biological target: Protein A domain D; test: BLI; conditions: chain shown with the change;; parent: 35.3 nM
[2] = biological target: Protein A domain D; test: ELISA; conditions: chain shown with the change;; parent: 7.5 nM

B1: sdAb n501 R95A (protein)
chain: EVQLVESGGGLVQPGGSLRLSCAASDFTFRNYEMSWVRQAPGKGLEWVSSISGSGGSTYYAHSLKGRFTISRDNSKNTLYLQMNSLAAEDTAIYYCARLRDGFNNGFDYWGQGTLVTVSS
B1 gave a Kd [1] of 431 nM and an EC50 [2] of 404 nM.

B2: sdAb n501 S79A (protein)
chain: EVQLVESGGGLVQPGGSLRLSCAASDFTFRNYEMSWVRQAPGKGLEWVSSISGSGGSTYYAHSLKGRFTIARDNSKNTLYLQMNSLRAEDTAIYYCARLRDGFNNGFDYWGQGTLVTVSS
Work on B2 yielded a Kd [1] of 372 nM and an EC50 [2] of 245 nM.

B3: sdAb n501 N92A (protein)
chain: EVQLVESGGGLVQPGGSLRLSCAASDFTFRNYEMSWVRQAPGKGLEWVSSISGSGGSTYYAHSLKGRFTISRDNSKNTLYLQMASLRAEDTAIYYCARLRDGFNNGFDYWGQGTLVTVSS
B3 gave an EC50 [2] of 151 nM.

B4: sdAb n501 S18A (protein)
chain: EVQLVESGGGLVQPGGALRLSCAASDFTFRNYEMSWVRQAPGKGLEWVSSISGSGGSTYYAHSLKGRFTISRDNSKNTLYLQMNSLRAEDTAIYYCARLRDGFNNGFDYWGQGTLVTVSS
With B4 the Kd [1] was 136 nM and the EC50 [2] was 709 nM.

B5: sdAb n501 G16A (protein)
chain: EVQLVESGGGLVQPAGSLRLSCAASDFTFRNYEMSWVRQAPGKGLEWVSSISGSGGSTYYAHSLKGRFTISRDNSKNTLYLQMNSLRAEDTAIYYCARLRDGFNNGFDYWGQGTLVTVSS
Work on B5 yielded a Kd [1] of 96.3 nM and an EC50 [2] of 92 nM.

B6: sdAb n501 T77A (protein)
chain: EVQLVESGGGLVQPGGSLRLSCAASDFTFRNYEMSWVRQAPGKGLEWVSSISGSGGSTYYAHSLKGRFAISRDNSKNTLYLQMNSLRAEDTAIYYCARLRDGFNNGFDYWGQGTLVTVSS
Work on B6 yielded an EC50 [2] of 200 nM.

B7: sdAb n501 T65A (protein)
chain: EVQLVESGGGLVQPGGSLRLSCAASDFTFRNYEMSWVRQAPGKGLEWVSSISGSGGSAYYAHSLKGRFTISRDNSKNTLYLQMNSLRAEDTAIYYCARLRDGFNNGFDYWGQGTLVTVSS
In the case of B7, the Kd [1] is reported as 1030 nM.

B8: sdAb n501 K72A (protein)
chain: EVQLVESGGGLVQPGGSLRLSCAASDFTFRNYEMSWVRQAPGKGLEWVSSISGSGGSTYYAHSLAGRFTISRDNSKNTLYLQMNSLRAEDTAIYYCARLRDGFNNGFDYWGQGTLVTVSS
With B8 the Kd [1] was 1360 nM and the EC50 [2] was 685 nM.

B9: sdAb n501 Y67A (protein)
chain: EVQLVESGGGLVQPGGSLRLSCAASDFTFRNYEMSWVRQAPGKGLEWVSSISGSGGSTYAAHSLKGRFTISRDNSKNTLYLQMNSLRAEDTAIYYCARLRDGFNNGFDYWGQGTLVTVSS
Binder B9 has an EC50 [2] of 162 nM.
